From paper PMC11790492 (Nature Microbiology, 2024)
Substitutions are numbered along the chain they refer to. In names and notes the source's numbering stands.

Experiments:
[1] = biological target: KorB (plasmid RK2, expressed in Escherichia coli) (UniProt P07674); experiment: BLI; settings: BLI and C-trap buffers not given in the material, crystals 10 mM Tris-HCl, 150 mM NaCl pH 8.0 then 1.95 M ammonium sulfate, 0.1 M NaOAc pH 4.6, Eσ70 binding …
KorB [2] = biological target: T1, KorB (Escherichia coli, UniProt P07674); experiment: ITC (weak, affinity could not be fitted); assay type: binding; design: C-terminally His-tagged KorB (WT)
KorB [3] = biological target: T1, KorB; experiment: ITC; also OB DNA-stimulated CTPase assay; assay type: binding; design: C-terminally His-tagged KorB (WT)
ParB = biological target: T2, ParB (Caulobacter vibrioides, UniProt P0CAV8); experiment: CTP hydrolysis rate by phosphate release assay (EnzChek), […] CTP; assay type: biochemical
T2 sequence (P0CAV8 1-304): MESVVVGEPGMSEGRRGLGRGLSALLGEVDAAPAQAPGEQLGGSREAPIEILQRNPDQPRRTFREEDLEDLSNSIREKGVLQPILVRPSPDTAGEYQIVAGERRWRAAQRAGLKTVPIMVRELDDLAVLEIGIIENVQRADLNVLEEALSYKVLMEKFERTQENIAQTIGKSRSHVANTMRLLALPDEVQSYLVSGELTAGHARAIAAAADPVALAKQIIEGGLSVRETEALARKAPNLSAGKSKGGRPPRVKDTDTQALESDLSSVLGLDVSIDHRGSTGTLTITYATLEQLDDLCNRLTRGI

Noc = biological target: T3, Noc (Bacillus subtilis, UniProt P37524); experiment: as above; assay type: biochemical
T3 sequence (P37524 1-283): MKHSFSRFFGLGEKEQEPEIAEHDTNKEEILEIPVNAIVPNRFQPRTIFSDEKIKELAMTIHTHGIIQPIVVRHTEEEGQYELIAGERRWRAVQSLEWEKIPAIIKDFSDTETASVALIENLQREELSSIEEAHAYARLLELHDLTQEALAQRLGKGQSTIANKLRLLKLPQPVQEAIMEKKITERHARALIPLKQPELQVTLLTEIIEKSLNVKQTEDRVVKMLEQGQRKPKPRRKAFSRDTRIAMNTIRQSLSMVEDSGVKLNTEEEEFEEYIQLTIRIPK

KorB [4] = biological target: T1, KorB; experiment: ITC; […] Å co-crystal structure (ligand modelled as CTP, sulfur position not assignable); assay type: binding; design: ITC: C-terminally His-tagged KorB; crystal: KorB∆N30∆CTD (lacks the 30 N-terminal amino acids, the linker and the CTD)
[5] = biological target: KorB (wild type), C-terminally His-tagged (plasmid RK2 (Escherichia coli)) (UniProt P07674)
[6] = test system: AF647-KorA (Y84A) (plasmid RK2); experiment: optical tweezers residence time; settings: unlabelled KorB, 2 mM CTP; BLI and C-trap buffers not given in the material; crystals 10 mM Tris-HCl, 150 mM NaCl pH 8.0 then 1.95 M ammonium sulfate, 0.1 M NaOAc pH 4.6; Eσ70 binding …
AF647-KorA (plasmid RK2) = experiment: optical tweezers residence time; settings: BLI and C-trap buffers not given in the material, crystals 10 mM Tris-HCl, 150 mM NaCl pH 8.0 then 1.95 M ammonium sulfate, 0.1 M NaOAc pH 4.6, Eσ70 binding …
E. coli RNAP core;σ70 = E. coli RNAP core;σ70 (Escherichia coli;Escherichia coli, UniProt P0A7Z4;P0A8V2;P0A8T7;P0A800;P00579 1-329;1-1342;1-1407;2-91;1-613, |); experiment: native MS; no KorA/KorB; BLI and C-trap buffers not given in the material; crystals 10 mM Tris-HCl, 150 mM NaCl pH 8.0 then 1.95 M ammonium sulfate, 0.1 M NaOAc pH 4.6; Eσ70 binding and; settings: protein: recombinant;recombinant; tags: His10-PPX;His-SUMO, cleaved; chain copies: 2;1;1;1;1; blunt
[7] = biological target: T4, KorB (wild type), C-terminally His-tagged (plasmid RK2 (Escherichia coli), UniProt P07674 1-358); experiment: ITC
T4 chain: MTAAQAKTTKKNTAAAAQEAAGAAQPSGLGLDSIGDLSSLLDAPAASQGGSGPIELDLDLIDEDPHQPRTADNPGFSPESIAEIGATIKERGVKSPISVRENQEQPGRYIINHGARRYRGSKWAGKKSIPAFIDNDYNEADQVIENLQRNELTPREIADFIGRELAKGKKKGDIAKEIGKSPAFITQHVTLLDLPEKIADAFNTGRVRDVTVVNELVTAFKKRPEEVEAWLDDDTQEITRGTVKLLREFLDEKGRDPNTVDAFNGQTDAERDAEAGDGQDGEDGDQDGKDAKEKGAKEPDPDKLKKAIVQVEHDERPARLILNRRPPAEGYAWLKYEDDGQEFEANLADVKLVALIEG

[8] = biological target: the molecule itself; experiment: crystal structure; KorBΔN30ΔCTD–KorA complex with 14 bp OA DNA duplex, no CTPγS added; 2.7 Å; two KorA, two KorB subunits and one DNA duplex in the asymmetric unit
[9] = biological target: T5, KorB (wild type), C-terminally His-tagged (plasmid RK2 (Escherichia coli), UniProt P07674 1-358); experiment: cell-based or functional assay
T5 sequence (looked up): T4 chain

KorBΔN30ΔCTD;KorA = KorBΔN30ΔCTD;KorA (plasmid RK2;plasmid RK2, UniProt P07674;P03052 31-252;1-101, |); experiment: X-ray crystallography; no CTPγS added; sulfates; BLI and C-trap buffers not given in the material; crystals 10 mM Tris-HCl, 150 mM NaCl pH 8.0 then 1.95 M ammonium sulfate, 0.1 M NaOAc pH 4.6; Eσ70 binding and; settings: protein: recombinant;recombinant; tags: His-tagged;C-terminal His6 (pET21b); chain copies: 2;2; blunt, self-complementary, 2 copies
[10] = biological target: the molecule itself; experiment: cross-linking; BMOE (1 mM) cysteine cross-linking of 8 µM KorB variant dimer ± 1 mM CTP or CTPγS ± 24 bp OB or scrambled DNA; 10 mM Tris–HCl pH 7.4, 100 mM NaCl, 1 mM MgCl2; room temperature; SDS–PAGE, band quantification

40-bp OB DNA
Kd ([1]; 1 mM CTP): 60 µM
Kd ([1]; no CTP): 0.14 µM

Nc1ccn([C@@H]2O[C@H](COP(=O)(O)OP(=O)(O)O)[C@@H](O)[C@H]2O)c(=O)n1 [CDP]
ITC (weak, affinity could not be fitted) (KorB [2]): KorB binding to CDP was qualitatively much weaker than to CTP, but the data precluded the estimation

Nc1ccn([C@@H]2O[C@H](COP(=O)(O)OP(=O)(O)OP(=O)(O)O)[C@@H](O)[C@H]2O)c(=O)n1 [CTP]
Kd (KorB [3]): 4.5 ± 0.5 µM
CTP hydrolysis rate by phosphate release assay (EnzChek), 1 mM CTP (ParB): CTP hydrolysis rates of KorB, C. crescentus ParB, and B. subtilis Noc were measured by continuous detection
CTP hydrolysis rate by phosphate release assay (EnzChek), 1 mM CTP (Noc): CTP hydrolysis rates of KorB, C. crescentus ParB, and B. subtilis Noc were measured by continuous detection

Nc1ccn([C@@H]2O[C@H](COP(=O)(O)OP(=O)(O)OP(O)(O)=S)[C@@H](O)[C@H]2O)c(=O)n1 [CTPɣS, cytidine-5′-(3-thiotriphosphate)]
Kd (KorB [4]): 400 ± 100 nM

AF647–KorA: KorA with an extra C-terminal cysteine, C-terminally His-tagged, labelled with Alexa Fluor 647 (from UniProt P03052) (natural protein)
change of the residence time of AF647–KorA at OA on DNA (optical tweezers) with unlabelled KorB and CTP, against KorA with or without apo-KorB [5]: 4.5 fold

C-trap DNA 8xOB + 1xOA (22,394 bp; also ligated as 44.8 kb tandem)
binding [6]: 3.72 s
binding (AF647-KorA (plasmid RK2); unlabelled KorB (F249A), 2 mM CTP): 3.07 s
binding (AF647-KorA (plasmid RK2); unlabelled KorB, 2 mM CTP): 10.1 s
binding (AF647-KorA (plasmid RK2); unlabelled KorB, no CTP): 2.61 s

B1: PkorA 100 bp (nMS) (dsDNA)
DNA 1: GTTACGCCAAGGACGAGTTTTAGCGGCTAAAGGTGTTGACGTGCGAGAAATGTTTAGCTAAACTTCTCTCATGTGCTGGCGGCTGTCACCGCTATGTTCA
DNA 2: TGAACATAGCGGTGACAGCCGCCAGCACATGAGAGAAGTTTAGCTAAACATTTCTCGCACGTCAACACCTTTAGCCGCTAAAACTCGTCCTTGGCGTAAC
binding result (E. coli RNAP core;σ70): binds

B2: KorA (wild type), C-terminally His-tagged (natural protein, plasmid RK2 (Escherichia coli))
chain: MKKRLTESQFQEAIQGLEVGQQTIEIARGVLVDGKPQATFATSLGLTRGAVSQAVHRVWAAFEDKNLPEGYARVTAVLPEHQAYIVRKWEADAKKKQETKR
notes: KorA of plasmid RK2, wild type; cysteine-less; expected monomer mass in nMS 12,825.6 Da; also called KorA (WT); KorA–(his)6; source: E. coli Rosetta (BL21 DE3) pLysS, pET21b, purified (HisTrap, Heparin, Superdex 75); not shown: His6, C-terminal, kept
Kd [7]: 4.2 µM
binding result [8]: binds
fold of repression of a promoter–xylE reporter (OB 1.5 kb upstream of the core promoter, OA over the −10 element) in E. coli with WT KorA and WT KorB co-expressed [9]: ~38000 fold

B3: 14 bp OA (dsDNA)
DNA 1: TGTTTAGCTAAACA
DNA 2: TGTTTAGCTAAACA
binding result (KorBΔN30ΔCTD;KorA): binds

B4: KorB (K351C), C-terminally His-tagged (natural protein)
chain: T4 chain with K351C
binding result [10]: binds
